According to PMC12513996 (Nature Communications, 2025):

B2: FIP200(1490–1594) (domain or fragment)
chain: SRHSEKIAIRDFQVGDLVLIILDERHDNYVLFTVSPTLYFLHSESLPALDLKPGEGASGASRRPWVLGKVMEKEYCQAKKAQNRFKVPLGTKFYRVKAVSWNKKV
B3: FIP200(1490–1594) of the crystallised FIP200 Claw/ATG16L1 FIR complex (domain or fragment)
chain: SRHSEKIAIRDFQVGDLVLIILDERHDNYVLFTVSPTLYFLHSESLPALDLKPGEGASGASRRPWVLGKVMEKEYCQAKKAQNRFKVPLGTKFYRVKAVSWNKKV

What was measured:
[1] = biological target: GST-[…]1 (human, UniProt Q9H0R8 1-117); assay: SEC
[2] = biological target: ATG16L1(78–247) (human, UniProt Q676U5 78-247); assay: SEC-MALS
[3] = biological target: the molecule itself; assay: crystal structure
[4] = biological target: B2; assay: SEC
[5] = biological target: B3; assay: crystal structure

Chain of GST-[…]1 (Q9H0R8 whole entry): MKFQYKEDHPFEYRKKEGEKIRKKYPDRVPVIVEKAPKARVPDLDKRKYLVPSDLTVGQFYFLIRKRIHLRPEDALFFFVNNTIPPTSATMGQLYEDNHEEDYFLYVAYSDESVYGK

B1: Trx-tagged ATG16L1(78–247) (domain or fragment)
chain: NDNQLQEMAQLRIKHQEELTELHKKRGELAQLVIDLNNQMQRKDREMQMNEAKIAECLQTISDLETECLDLRTKLCDLERANQTLKDEYDALQITFTALEGKLRKTTEENQELVTRWMAEKAQEANRLNAENEKDSRRRQARLQKELAEAAKEPLPVEQDDDIEVIVDET
- binding result [1]: binds

Binder: B2
- stoichiometry N [2]: 1

Binder: B3
- stoichiometry N [3]: 2

Binder: EQDDDIEVIVDET (domain or fragment) [Trx-tagged ATG16L1 FIR]
- binding result [4]: binds

Binder: EQDDDIEVIVDET [ATG16L1(235–247) of the crystallised FIP200 Claw/ATG16L1 FIR complex]
- binding result [5]: binds
